Consider four molecules from paper PMC10716038, “Talin and kindlin use integrin tail allostery and direct binding to activate integrins” (Nature Structural & Molecular Biology, 2023).

B1: kindlin-2 (KIND2) (natural protein)
chain: MALDGIRMPDGCYADGTWELSVHVTDLNRDVTLRVTGEVHIGGVMLKLVEKLDVKKDWSDHALWWEKKRTWLLKTHWTLDKCGIQADAKLQFTPQHKLLRLQLPNMKYVKVKVNFSDRVFKAVSDICKTFNIRHPEELSLLKKPRDPTKKKKKKLDDQSEDEALELEGPLIMPGSGSIYSSPGLYSKTMTPTYDAHDGSPLSPTSAWFGDSALSEGNPGILAVSQPVTSPEILAKMFKPQALLDKAKTNQGWLDSSRSLMEQDVKENEALLLRFKYYSFFDLNPKYDAIRINQLYEQAKWALLLEEIECTEEEMMMFAALQYHINKLSIMTSENHLNNSDKEVDEVDAALSDLEITLEGGKTSTILGDITSIPELADYIKVFKPKKLTLKGYKQYWCTFKDTSISCYKSREESSGTPAHQLNLRGCEVTPDVNISGQKFNIKLLIPVAEGMNEIWLRCDNEKQYAHWMAACRLASKGKTMADSSYNLEVQNILSFLKMQHLNPDPQLIPDQITTDVNPECLVSPRYLKKYKSKQITARILEAHQNVAQMSLIEAKMRFIQAWQSLPEFGITHFIARFQGGKREELIGIAYNRLIRMDASTGDAIKTWRFSNMKQWNVNWEIKMVTVEFADEVRLSFICTEVDCKVVHEFIGGYIFLSTRAKDQNESLDEEMFYKLTSGWV

No end group written: not given here.

Test [1] deals with T1, talin-1 head domain (THD1) (UniProt P26039 1-405).
T1 chain: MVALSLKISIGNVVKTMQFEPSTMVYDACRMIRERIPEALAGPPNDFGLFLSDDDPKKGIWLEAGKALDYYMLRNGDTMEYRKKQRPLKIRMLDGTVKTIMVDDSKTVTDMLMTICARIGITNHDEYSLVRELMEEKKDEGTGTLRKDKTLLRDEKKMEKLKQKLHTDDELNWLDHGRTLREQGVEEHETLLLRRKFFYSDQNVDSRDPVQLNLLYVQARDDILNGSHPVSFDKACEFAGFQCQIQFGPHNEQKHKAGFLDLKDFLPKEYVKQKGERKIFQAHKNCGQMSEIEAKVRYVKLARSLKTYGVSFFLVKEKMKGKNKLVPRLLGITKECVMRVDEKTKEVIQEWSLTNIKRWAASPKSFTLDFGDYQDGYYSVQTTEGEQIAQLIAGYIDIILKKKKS
Briefly: MST; apparent, with KIND2.

Test [2] addresses T2, talin-2 head domain (THD2) (UniProt Q71LX4 1-408).
T2 chain: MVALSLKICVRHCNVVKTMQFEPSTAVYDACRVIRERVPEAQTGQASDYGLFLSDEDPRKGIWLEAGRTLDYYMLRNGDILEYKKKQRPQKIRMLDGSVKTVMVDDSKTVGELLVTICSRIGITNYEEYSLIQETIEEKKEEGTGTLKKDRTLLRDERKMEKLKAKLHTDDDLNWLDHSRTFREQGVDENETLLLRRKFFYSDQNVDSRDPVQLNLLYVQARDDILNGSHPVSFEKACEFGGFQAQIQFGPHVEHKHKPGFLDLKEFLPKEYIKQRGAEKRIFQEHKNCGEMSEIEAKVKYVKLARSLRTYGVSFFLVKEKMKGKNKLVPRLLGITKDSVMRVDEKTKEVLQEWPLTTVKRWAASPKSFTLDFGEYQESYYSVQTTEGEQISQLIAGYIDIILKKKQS
Briefly: MST.

Test [3] has as its target B1. Briefly: MST.
For test [4], the target named is T1, talin-1 head domain (THD1). In words: MST.
Test [5] concerns the target T3, TLN1-F3–ΔKIND2 fusion protein.
T3 chain: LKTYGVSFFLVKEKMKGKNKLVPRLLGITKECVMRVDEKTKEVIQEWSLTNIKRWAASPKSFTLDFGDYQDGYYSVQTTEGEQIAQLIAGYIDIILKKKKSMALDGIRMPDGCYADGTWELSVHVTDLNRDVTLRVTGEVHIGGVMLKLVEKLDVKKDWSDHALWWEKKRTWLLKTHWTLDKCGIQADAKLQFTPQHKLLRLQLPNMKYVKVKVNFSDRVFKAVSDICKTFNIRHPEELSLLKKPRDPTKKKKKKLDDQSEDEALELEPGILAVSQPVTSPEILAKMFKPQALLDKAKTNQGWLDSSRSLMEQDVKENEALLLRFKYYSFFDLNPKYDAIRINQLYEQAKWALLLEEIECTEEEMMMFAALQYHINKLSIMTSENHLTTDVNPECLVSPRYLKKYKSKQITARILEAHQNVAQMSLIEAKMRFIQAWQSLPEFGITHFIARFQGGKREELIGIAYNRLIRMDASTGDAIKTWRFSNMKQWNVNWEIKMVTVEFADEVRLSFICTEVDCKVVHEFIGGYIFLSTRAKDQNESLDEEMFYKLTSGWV
In words: MST; TLN1-F3 contribution.

Test [6] addresses T4, TLN1-F3–ΔKIND2^Y13A fusion protein.
T4 chain: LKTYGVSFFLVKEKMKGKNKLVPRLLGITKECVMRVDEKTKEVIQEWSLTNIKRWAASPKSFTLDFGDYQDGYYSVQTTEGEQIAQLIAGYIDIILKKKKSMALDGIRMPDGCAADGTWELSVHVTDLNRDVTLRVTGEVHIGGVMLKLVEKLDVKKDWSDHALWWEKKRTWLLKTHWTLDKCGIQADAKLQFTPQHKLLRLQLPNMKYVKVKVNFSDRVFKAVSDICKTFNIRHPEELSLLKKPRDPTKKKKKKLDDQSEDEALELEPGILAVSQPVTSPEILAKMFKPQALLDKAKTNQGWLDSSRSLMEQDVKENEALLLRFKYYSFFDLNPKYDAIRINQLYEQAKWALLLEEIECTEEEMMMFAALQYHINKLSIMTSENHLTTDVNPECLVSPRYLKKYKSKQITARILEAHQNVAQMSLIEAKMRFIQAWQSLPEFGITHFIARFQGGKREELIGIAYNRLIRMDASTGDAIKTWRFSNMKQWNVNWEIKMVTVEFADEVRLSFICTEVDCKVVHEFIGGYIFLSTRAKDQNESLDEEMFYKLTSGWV
Briefly: MST; TLN1-F3 contribution.

Test [7] addresses B1. Briefly: MST.
The target in test [8] is B1. In words: MST; apparent, with THD1.
For test [9], the target named is T5, α5-TM lacking the cytoplasmic domain (tailless α5-TM) in nanodiscs (UniProt P11688 993-1025, biotin (biotin-maleimide)).
T5 chain: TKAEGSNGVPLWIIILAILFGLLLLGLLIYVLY
In words: FACS; 10% PIP3 nanodiscs.

Test [10] deals with T6, β1 transmembrane and cytoplasmic tail polypeptide (β1-TM–CT) in nanodiscs (UniProt P05556 726-798, biotin (biotin-maleimide)).
T6 chain: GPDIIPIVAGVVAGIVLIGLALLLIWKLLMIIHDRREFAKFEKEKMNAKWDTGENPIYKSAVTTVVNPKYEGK
In words: FACS; 10% PIP3 nanodiscs.

The target in test [11] is T7, β1-TM–CT Y783A (THD1-binding impaired) in nanodiscs (UniProt P09055 726-798, Y783A, biotin (biotin-maleimide)). In words: FACS; 10% PIP3 nanodiscs.
The target of test [12] is T8, β1-TM–CT Y795A (KIND2-binding impaired) in nanodiscs (UniProt P09055 726-798, Y795A, biotin (biotin-maleimide)). In words: FACS; 10% PIP3 nanodiscs.
The target of test [13] is T5, α5-TM lacking the cytoplasmic domain …. Briefly: FACS; 10% PIP2 nanodiscs.
Test [14] concerns the target T6, β1 transmembrane and cytoplasmic tail …. Briefly: FACS; 10% PIP2 nanodiscs.
Test [15] concerns the target T7, β1-TM–CT Y783A (THD1-binding impaired) …. Briefly: FACS; 10% PIP2 nanodiscs.
Test [16] deals with T9, β3 transmembrane and cytoplasmic tail polypeptide (β3-TM–CT) in nanodiscs (UniProt O54890 715-787, biotin (biotin-maleimide)).
T9 chain: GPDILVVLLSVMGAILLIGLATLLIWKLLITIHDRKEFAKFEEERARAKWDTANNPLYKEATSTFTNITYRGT
In words: FACS; 10% PIP2 nanodiscs.

For test [17], the target named is T8, β1-TM–CT Y795A (KIND2-binding impaired) …. Briefly: FACS; 10% PIP2 nanodiscs.
Test [18] addresses T3, TLN1-F3–ΔKIND2 fusion protein. In words: MST.
Test [19] addresses T10, kindlin-2 (KIND2) (UniProt Q8CIB5 1-680).
T10 construct: kindlin-2 (KIND2) without the deletions of ΔKIND2; In FC-RDA a copy labelled with Alexa 647 (647–KIND2) was the reporter; also called 647–KIND2; source: E. coli Rosetta, purified (IMAC, SEC); not shown: His10, N-terminal, cleaved; SUMO, N-terminal, cleaved
T10 sequence (looked up): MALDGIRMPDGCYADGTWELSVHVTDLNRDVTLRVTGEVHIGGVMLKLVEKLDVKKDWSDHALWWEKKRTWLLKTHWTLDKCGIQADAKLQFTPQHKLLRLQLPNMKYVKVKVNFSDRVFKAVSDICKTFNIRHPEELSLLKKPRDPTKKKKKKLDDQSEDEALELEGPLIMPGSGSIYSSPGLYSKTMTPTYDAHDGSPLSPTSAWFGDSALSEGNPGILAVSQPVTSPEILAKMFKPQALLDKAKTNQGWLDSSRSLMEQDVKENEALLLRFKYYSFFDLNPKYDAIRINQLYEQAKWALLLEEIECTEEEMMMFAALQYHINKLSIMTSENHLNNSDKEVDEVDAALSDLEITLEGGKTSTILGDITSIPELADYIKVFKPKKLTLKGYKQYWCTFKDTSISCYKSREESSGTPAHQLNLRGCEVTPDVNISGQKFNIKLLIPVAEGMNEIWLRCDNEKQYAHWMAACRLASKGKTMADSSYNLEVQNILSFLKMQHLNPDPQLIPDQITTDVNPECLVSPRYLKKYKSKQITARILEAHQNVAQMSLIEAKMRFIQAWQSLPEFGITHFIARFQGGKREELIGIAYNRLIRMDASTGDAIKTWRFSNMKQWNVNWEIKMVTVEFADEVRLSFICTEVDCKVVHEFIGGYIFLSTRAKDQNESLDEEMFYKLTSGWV
Briefly: NMR titration; 15N-labelled TLN1-F3 observed in the presence of β1-CT at saturating concentration (200 µM) with 75 µM KIND2 added; 298 K. The note with it: both partners purified.

For {ATTO 488}-KLLMIIHDRREFAKFEKEKMNAKWDTGENPIYKSAVTTVVNPKYEGK [ATTO 488-labelled β1-CT (488–β1-CT)], the Kd was determined as 153000 nM in test [1]; 25000 nM in [2]; 2900 nM in the test with kindlin-2 (KIND2) [3]; 140000 nM in [4]; 25300 nM in [5]; 15700 nM in test [6]. The Kd with kindlin-2 (KIND2) [7] is 3000 nM; with kindlin-2 (KIND2) [8] it was 42000 nM.
Turning to B1, the 50% inhibitory concentration (IC50) came out at 471 nM in test [9]; 102 nM in test [10]; 255 nM in [11]; 162 nM in test [12]; 444 nM in [13]; 120 nM in test [14]. For the same molecule, the concentration for half-maximal inhibition (IC50) is 117 nM in test [15], 95 nM in test [16] and 370 nM in [17].
With {ATTO 488}-KLLMIIHDRREFAKFEKEKMNAKWDTGENPIAKSAVTTVVNPKYEGK [ATTO 488-labelled β1-CT^Y783A], the Kd was 4300 nM in test [18] and 4900 nM in the test with kindlin-2 (KIND2) [3].

B2: F3 domain of TLN1 (TLN1-F3) (domain or fragment, UniProt P26039 305-405, looked up)
chain: LKTYGVSFFLVKEKMKGKNKLVPRLLGITKECVMRVDEKTKEVIQEWSLTNIKRWAASPKSFTLDFGDYQDGYYSVQTTEGEQIAQLIAGYIDIILKKKKS
notes: Used unlabelled, 15N-labelled or partially deuterated in NMR; also called T1-F3; source: E. coli (DE3) Rosetta 2, purified (IMAC, SEC); not shown: His10, N-terminal, cleaved; SUMO, N-terminal, cleaved
With B2, in the test with kindlin-2 (KIND2) [19], the binding result is “binds”.
